Source: patent US20220332795A1

Columns and labels:
[1] = molecular target: human serum albumin (human) (UniProt P02768); assay: solution ELISA screen (luminescence)
[2] = molecular target: human serum albumin (human) (UniProt P02768); assay: primary solution ELISA screen

human serum albumin (human), sequence (P02768 25-609 limits assumed): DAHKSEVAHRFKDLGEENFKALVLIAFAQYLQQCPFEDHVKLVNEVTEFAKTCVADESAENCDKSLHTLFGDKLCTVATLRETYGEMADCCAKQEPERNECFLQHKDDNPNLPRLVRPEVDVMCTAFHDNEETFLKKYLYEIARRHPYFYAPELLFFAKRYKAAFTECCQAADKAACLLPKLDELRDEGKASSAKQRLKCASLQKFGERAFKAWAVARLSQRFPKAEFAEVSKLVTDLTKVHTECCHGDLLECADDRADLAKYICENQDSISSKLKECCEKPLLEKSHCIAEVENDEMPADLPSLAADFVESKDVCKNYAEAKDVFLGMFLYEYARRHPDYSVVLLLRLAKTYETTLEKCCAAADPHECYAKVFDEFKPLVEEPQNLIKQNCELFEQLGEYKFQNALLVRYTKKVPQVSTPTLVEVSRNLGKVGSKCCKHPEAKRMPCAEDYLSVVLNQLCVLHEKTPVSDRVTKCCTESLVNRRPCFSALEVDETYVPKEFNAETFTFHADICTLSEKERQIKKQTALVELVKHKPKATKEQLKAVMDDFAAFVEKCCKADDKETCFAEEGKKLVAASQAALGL

Binder	RLU [1] [RLU]	RLU [2] [RLU]
SEQ ID NO 242 (designed binder, not shown: small tags and cut ends) MLPAPKNLVVSRVTEDSARLSWTAPDAAFDSFYIAYAEPRPDGEAIQLLVPGSERSYDLTGLKPGTEYSVLIHGVKGGLLSSPLYAAFTT	20400	
SEQ ID NO 246 (designed binder, not shown: small tags and cut ends) MLPAPKNLVVSRVTEDSARLSWTAPDAAFDSFYIAYAEPRPDGEAIQLHVPGSERSYDLTGLKPGTEYSVLIHGVKGGLLSSPLYAFFTT	25800	
SEQ ID NO 247 (designed binder, not shown: small tags and cut ends) MLPAPKNLVVSRVTEDSARLSWTAPDAAFDSFYIAYAEPRPDGEAILLHVPGSERSYDLTGLKPGTEYSVLIHGVKGGLLSSPLRASFTT	19000	
SEQ ID NO 244 (designed binder, not shown: small tags and cut ends) MLPAPKNLVVSRVTEDSARLSWTAPDAAFDSFYIAYAEPRPDGEAISLQVPGSERSYDLTGLKPGTEYSVLIHGVKGGLLSSPLGAHFTT	18000	
SEQ ID NO 245 (designed binder, not shown: small tags and cut ends) MLPAPKNLVVSRVTEDSARLSWTAPDAAFDSFYIAYAEPRPDGEAIALWVPGSERSYDLTGLKPGTEYSVLIHGVKGGLLSSPLVASFTT	18400	
SEQ ID NO 35 (designed binder, not shown: small tags and cut ends) MLPAPKNLVVSRVTEDSARLSWTAPDAAFDSFPISYIESIADGEAIVLTVPGSERSYDLTGLKPGTEYWVAIVGVKGGPFSWSLSAIVTT		18800
SEQ ID NO 33 (designed binder, not shown: small tags and cut ends) MLPAPKNLVVSRVTEDSARLSWTAPDAAFDSFGIAYVESYWYGEAIVLTVPGSERSYDLTGLKPGTEYNVPIYGVKGGDGSGPLSAIFTT		2050
SEQ ID NO 241 (designed binder, not shown: small tags and cut ends) MLPAPKNLVVSRVTEDSARLSWTAPDAAFDSFFIGYLEPQPPGEAIHLGVPGSERSYDLTGLKPGTEYNVTIQGVKGGFPSIPLFASFTT	26600	
SEQ ID NO 243 (designed binder, not shown: small tags and cut ends) MLPAPKNLVVSRVTEDSARLSWTAPDAAFDSFFIGYLEPQPPGEAIHLAVPGSERSYDLTGLKPGTEYNVTIQGVKGGFPSVPLAAVFTT	30900	
SEQ ID NO 34 (designed binder, not shown: small tags and cut ends) MLPAPKNLVVSRVTEDSARLSWTAPDAAFDSFYITYVELNLAGEAIVLTVPGSERSYDLTGLKPGTEYPVPILGVKGGSLSQPLSAIFTT		8100

Further lines, results first:

RLU [1] [RLU]	RLU [2] [RLU]	Binder
37700		SEQ ID NO 253 (designed binder, not shown: small tags and cut ends) MLPAPKNLVVSRVTEDSARLSWTAPDAAFDSFYIAYAEPRPDGEAIILHVPGSERSYDLTGLKPGTEYSVLIHGVKGGLLSSPLDAYFTT
72800		SEQ ID NO 252 (designed binder, not shown: small tags and cut ends) MLPAPKNLVVSRVTEDSARLSWTAPDAAFDSFYIAYAEPRPDGEAIVLHVPGSERSYDLTGLKPGTEYSVLIHGVKGGLLSSPLDAFFTT
48400		SEQ ID NO 250 (designed binder, not shown: small tags and cut ends) MLPAPKNLVVSRVTEDSARLSWTAPDAAFDSFYIAYAEPRPDGEAILLRVPGSERSYDLTGLKPGTEYSVLIHGVKGGLLSSPLYAKFTT
34000		SEQ ID NO 248 (designed binder, not shown: small tags and cut ends) MLPAPKNLVVSRVTEDSARLSWTAPDAAFDSFYIAYAEPRPDGEAIWLGVPGSERSYDLTGLKPGTEYSVLIHGVKGGLLSSPLHATFTT
24100		SEQ ID NO 249 (designed binder, not shown: small tags and cut ends) MLPAPKNLVVSRVTEDSARLSWTAPDAAFDSFYIAYAEPRPDGEAIVLEVPGSERSYDLTGLKPGTEYSVLIHGVKGGLLSSPLHANFTT
26100		SEQ ID NO 251 (designed binder, not shown: small tags and cut ends) MLPAPKNLVVSRVTEDSARLSWTAPDAAFDSFFIGYLEPQPPGEAIGLWVPGSERSYDLTGLKPGTEYNVTIQGVKGGFPSDPLQAVFTT
